From US20190185581A1 (University of California, published 2019)
Blank lines part the entries; values can stand above or below the binder they belong to.

Experiments:
[1] = target: T1, catalytic domain of MMP-9 (cdMMP-9) (human, UniProt P14780 107-443, limits assumed); assay: competitive ELISA: Fab R2C5 at its IC50 concentration pre-incubated with soluble cdMMP-9, then added to a plate coated with 100 nM cdMMP-14; anti-Fab-HRP
T1 sequence: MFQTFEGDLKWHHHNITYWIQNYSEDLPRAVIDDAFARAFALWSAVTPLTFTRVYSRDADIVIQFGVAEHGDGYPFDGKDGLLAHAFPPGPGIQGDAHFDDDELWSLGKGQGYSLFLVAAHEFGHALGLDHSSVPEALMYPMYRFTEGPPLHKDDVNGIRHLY

[2] = target: T2, catalytic domain of MMP-14 (cdMMP-14) (human, UniProt P50281 114-287, limits assumed, biotinylated (Sulfo-NHS-LC-Biotin) where immobilised via streptavidin); assay: cell-based or functional assay
[3] = target: T2, catalytic domain of MMP-14 (cdMMP-14); assay: ELISA, Fab titrated on immobilised biotin-cdMMP-14, anti-Fab-HRP
[4] = target: T1, catalytic domain of MMP-9 (cdMMP-9); assay: ELISA on MMP-2, MMP-9 and MMP-14 catalytic domains
[5] = target: T2, catalytic domain of MMP-14 (cdMMP-14); assay: ELISA, Fab titrated on immobilised MMP-14 catalytic domain, anti-Fab-HRP
Protocol: (§1) Bound Fabs were detected using the anti-Fab-HRP conjugate. The half-maximal effective concentration (EC₅₀) was calculated from a four-parametric logistic curve-fitting analysis.

[6] = target: T2, catalytic domain of MMP-14 (cdMMP-14); assay: cell-based or functional assay; remark: listed apart in the source
[7] = target: T3, Fab 3A2; assay: competitive ELISA: 10 nM Fab 3A2 pre-incubated with soluble MMP-14 mutant, then captured on immobilised wild-type MMP-14; anti-Fab-HRP
T3 construct: also called R3C9; not shown: His tag at the C-terminus of the heavy chain

[8] = target: T3, Fab 3A2; assay: competitive ELISA: 10 nM Fab 3A2 pre-incubated with soluble MMP-14 (WT or mutant), then captured on immobilised wild-type MMP-14; anti-Fab-HRP
Protocol: as §1

[9] = target: T2, catalytic domain of MMP-14 (cdMMP-14); assay: cell-based or functional assay; remark: listed apart in the source
[10] = target: T2, catalytic domain of MMP-14 (cdMMP-14); assay: competitive ELISA: serially diluted n-TIMP-2 with Fab 3A2 fixed at 10 nM on biotinylated cdMMP-14 on streptavidin wells; bound Fab detected with anti-Fab-HRP; competitor: Fab 3A2
[11] = target: catalytic domain of MMP-2 (human, UniProt P08253 115-449, limits assumed, biotinylated (Sulfo-NHS-LC-Biotin)); assay: ELISA, purified Fab at 50, 100, 250 and 500 nM on immobilised MMP catalytic domain, anti-Fab-HRP, OD450
[12] = target: T1, catalytic domain of MMP-9 (cdMMP-9); assay: as above
[13] = target: T1, catalytic domain of MMP-9 (cdMMP-9); assay: competitive ELISA: Fab R2C14 at its IC50 concentration pre-incubated with soluble cdMMP-9, then added to a plate coated with 100 nM cdMMP-14; anti-Fab-HRP

catalytic domain of MMP-2, sequence (P08253 other isoform, or with tags, fused parts or gaps limits assumed): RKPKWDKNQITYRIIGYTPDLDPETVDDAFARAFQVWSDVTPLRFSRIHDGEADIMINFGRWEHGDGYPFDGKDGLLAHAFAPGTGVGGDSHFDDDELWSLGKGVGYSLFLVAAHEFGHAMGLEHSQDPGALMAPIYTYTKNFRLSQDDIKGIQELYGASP

B3: MMP-14 catalytic domain mutant F260A (enzyme)
chain: not shown
notes: also called F260A MMP-14 mutant
binding result [7]: no binding (tested: about 2000 nM (log10(nM) 3.3))

B7: Fab 2B5 (Fab, V domains shown)
VH: EVQLVESGGGLVQPGGSLRLSCAASGFNLSYSSMHWVRQAPGKGLEWVASIYPYSGYTYYADSVKGRFTISADTSKNTAYLQMNSLRAEDTAVYYCARIGVNAWAVKMSQRMLATRGSGWYVMDYWGQGTLVTVSS
VL: DIQMTQSPSSLSASVGDRVTITCRASQSVSSAVAWYQQKPGKAPKLLIYSASSLYSGVPSRFSGSRSGTDFTLTISSLQPEDFATYYCQQSSSYPYSPITFGQGTKVEIKR
notes: not shown: His tag at the C-terminus of the heavy chain
EC50 [5]: 24 nM | IC50 by FRET Assay [6]: 240 nM | binding result [11]: no binding (tested: 500 nM) | binding result [12]: no binding (tested: 500 nM)

B8: Fab 3E2 (Fab, V domains shown)
VH: EVQLVESGGGLVQPGGSLRLSCAASGFNIYYYSIHWVRQAPGKGLEWVASIYPYSSYTYYADSVKGRFTISADTSKNTAYLQMNSLRAEDTAVYYCARGIKGLVFTGSQMKMLRRGNYNWYVMDYWGQGTLVTVSS
VL: DIQMTQSPSSLSASVGDRVTITCRASQSVSSAVAWYQQKPGKAPKLLIYSASSLYSGVPSRFSGSRSGTDFTLTISSLQPEDFATYYCQQSSYSLITFGQGTKVEIKR
notes: as for B7
EC50 [5]: 47 nM | IC50 by FRET Assay [6]: 42 nM | binding result [11]: no binding (tested: 500 nM) | binding result [12]: no binding (tested: 500 nM)

B10: Fab 3D9 (Fab, V domains shown)
VH: EVQLVESGGGLVQPGGSLRLSCAASGFNIYSSSIHWVRQAPGKGLEWVASIYSSYGYTYYADSVKGRFTISADTSKNTAYLQMNSLRAEDTAVYYCARRLMAYHGSCSSRLCQTAISPQRYAMDYWGQGTLVTVSS
VL: B8 VL
notes: as for B7
EC50 [5]: 6.4 nM | IC50 by FRET Assay [6]: 61 nM | binding result [11]: no binding (tested: 500 nM) | binding result [12]: no binding (tested: 500 nM) | IC50 of inhibition at neutral pH 7.5 [9]: 65 nM | IC50 of inhibition at pH 6.5 [9]: 10.5 nM | IC50 of inhibition at pH 8.5 [9]: 157 nM

Continued, in another order:

Inhibition potency (FRET IC50) [2]: 50 nM | EC50 [3]: 375 nM
B1: Fab R2C5 (Fab, V domains shown)
VH: EVQLVESGGGLVQPGGSLRLSCAASGFNLSSYYMHWVRQAPGKGLEWVASIYPYSSYTSYADSVKGRFTISADTSKNTAYLQMNSLRAEDTAVYYCARIMKIKRNSLKFRGFVPLQMQYVMDYWGQGTLVTVSS
VL: DIQMTQSPSSLSASVGDRVTITCRASQSVSSAVAWYQQKPGKAPKLLIYSASSLYSGVPSRFSGSRSGTDFTLTISSLQPEDFATYYCQQSYGLFTFGQGTKVEIKR
binding result [1]: no binding (tested: about 4000 nM (log10(nM) about 3.6))

Selectivity over MMP-2/-9 (ratio of Fab concentrations giving the same ELISA signal, MMP-2/-9 against MMP-14) [4]: 9.6 fold | EC50 [5]: 120 nM | IC50 by FRET Assay [6]: 420 nM
B2: Fab 33D2 (Fab, V domains shown)
VH: EVQLVESGGGLVQPGGSLRLSCAASGFNLYYSSIHWVRQAPGKGLEWVAYISSYSGYTSYADSVKGRFTISADTSKNTAYLQMNSLRAEDTAVYYCARSKYGPASRQLASRTSWSGPRGKYGMDYWGQGTLVTVSS
VL: DIQMTQSPSSLSASVGDRVTITCRASQSVSSAVAWYQQKPGKAPKLLIYSASSLYSGVPSRFSGSRSGTDFTLTISSLQPEDFATYYCQQAYGSYLITFGQGTKVEIKR
notes: as for B7

IC50 (read off the curve) [8]: ~100 nM
B4: MMP-14 catalytic domain mutant T190A (enzyme)
chain: not shown

IC50 (read off the curve) [8]: ~100 nM
B5: MMP-14 catalytic domain mutant Y203A (enzyme)
chain: not shown

inhibitory IC50 (FRET peptide substrate) [9]: 5.1 nM | IC50 (read off the curve) [10]: ~30 nM
B6: N-terminal inhibitory domain of tissue inhibitor of metalloproteinase-2 (n-TIMP-2) (other, UniProt P16035 27-153, looked up)
chain: CSCSPVHPQQAFCNADVVIRAKAVSEKEVDSGNDIYGNPIKRIQYEIKQIKMFKGPEKDIEFIYTAPSSAVCGVSLDVGGKKEYLIAGKAEGDGKMHITLCDFIVPWDTLSTTQKKSLNHRYQMGCE
notes: domain: N-terminal domain

Inhibition potency (FRET IC50) [2]: 10 nM | EC50 [3]: 1200 nM
B9: Fab R2C14 (Fab, V domains shown)
VH: EVQLVESGGGLVQPGGSLRLSCAASGFNIYSSSIHWVRQAPGKGLEWVASIYSYSGYTYYADSVKGRFTISADTSKNTAYLQMNSLRAEDTAVYYCARVSNRYNRSSASIAGLQLFRPYGMDYWGQGTLVTVSS
VL: B8 VL
binding result [13]: no binding (tested: about 4000 nM (log10(nM) about 3.6))
